# Measurements: US20220396782
# Test system: variant Cas12i2 (RNP, exact variant not stated in Examples 1-5)
# Test: cell_activity
# Conditions: HEK293T RNP 10 uM, 3 days
sequence,measurement,setting,value
AGAAAUCCGUCUUUCAUUGACGGGUAUAUCCCUUCUACAAAUU / GTATATCCCTTCTACAAATT / AATTTGTAGAAGGGATATAC [E3T3 Cas12i2 crRNA ; TTR E3T3 target],activity,PAM 5'-TTN (CTTT),> 80 % indels
AGAAAUCCGUCUUUCAUUGACGGAGGUCCACUGGAGGAGAAGU / AGGTCCACTGGAGGAGAAGT / ACTTCTCCTCCAGTGGACCT [E4T6 Cas12i2 crRNA ; TTR E4T6 target],activity,PAM 5'-TTN (CTTC),> 80 % indels
AGAAAUCCGUCUUUCAUUGACGGUAGAUGCUGUCCGAGGCAGU / TAGATGCTGTCCGAGGCAGT / ACTGCCTCGGACAGCATCTA [E2T3 Cas12i2 crRNA ; TTR E2T3 target],activity,PAM 5'-TTN (GTTC),> 80 % indels
